Key:
Assay in all cases: Kd (EC50 corrected by depletion factor)
RBM38 = target: T1, RBM38 (UniProt Q9H0Z9)
T1 sequence: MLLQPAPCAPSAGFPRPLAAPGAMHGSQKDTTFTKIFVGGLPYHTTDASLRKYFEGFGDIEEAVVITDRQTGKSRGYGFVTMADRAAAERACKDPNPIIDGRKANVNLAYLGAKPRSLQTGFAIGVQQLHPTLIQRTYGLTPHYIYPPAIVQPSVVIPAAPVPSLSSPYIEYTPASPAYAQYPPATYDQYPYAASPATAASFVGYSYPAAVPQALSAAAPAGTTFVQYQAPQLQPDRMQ
How it was run: (§1)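 Free RNA oligos (0 nM to 30 μM) competed for 1 h at 4°C in HEK293-FT lysate (2.5 mg protein/well) before a 30 min, 4°C pulldown with the same oligos on NHS-Sepharose beads. Bound proteins were quantified by label-free LC-MS/MS and normalised to the control. Kd was found by multiplying EC50, from a four-parameter log-logistic fit, by a protein-dependent depletion factor.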

CSTF3 = target: T2, CSTF3 (UniProt Q12996)
T2 sequence: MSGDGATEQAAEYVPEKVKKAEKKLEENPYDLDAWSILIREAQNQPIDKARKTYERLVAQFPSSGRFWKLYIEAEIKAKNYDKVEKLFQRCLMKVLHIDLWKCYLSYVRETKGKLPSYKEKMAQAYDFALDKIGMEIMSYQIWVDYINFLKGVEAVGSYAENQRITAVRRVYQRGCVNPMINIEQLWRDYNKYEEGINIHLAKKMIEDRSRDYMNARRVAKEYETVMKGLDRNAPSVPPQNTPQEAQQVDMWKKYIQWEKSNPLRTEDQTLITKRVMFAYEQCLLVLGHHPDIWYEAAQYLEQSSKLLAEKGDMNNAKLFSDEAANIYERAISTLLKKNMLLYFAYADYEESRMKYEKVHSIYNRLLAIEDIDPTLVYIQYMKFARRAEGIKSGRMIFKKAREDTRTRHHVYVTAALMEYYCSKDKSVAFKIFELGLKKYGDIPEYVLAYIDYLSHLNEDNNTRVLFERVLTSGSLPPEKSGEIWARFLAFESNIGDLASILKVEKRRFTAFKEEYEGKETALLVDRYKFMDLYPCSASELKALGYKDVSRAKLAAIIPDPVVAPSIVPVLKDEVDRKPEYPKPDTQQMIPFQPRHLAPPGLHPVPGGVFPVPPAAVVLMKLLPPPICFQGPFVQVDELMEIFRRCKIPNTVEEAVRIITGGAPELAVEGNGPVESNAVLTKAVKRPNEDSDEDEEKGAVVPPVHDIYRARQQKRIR
How it was run: as §1

TTC37 = TTC37 (UniProt Q6PGP7)
How it was run: as §1

HNRNPA2B1 = HNRNPA2B1 (UniProt P22626)
How it was run: as §1

TSN = TSN (UniProt Q15631)
How it was run: as §1

SRSF10 = SRSF10 (UniProt O75494)
How it was run: as §1

P4HA1 = P4HA1 (UniProt P13674)
How it was run: as §1

SF3B5 = target: T3, SF3B5 (UniProt Q9BWJ5)
T3 sequence: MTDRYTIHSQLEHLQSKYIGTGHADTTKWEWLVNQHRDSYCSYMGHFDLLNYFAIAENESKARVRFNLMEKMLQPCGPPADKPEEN
How it was run: as §1

PTBP3 = PTBP3 (UniProt O95758)
How it was run: as §1

CSNK2A1 = CSNK2A1 (UniProt P68400)
How it was run: as §1

ZGPAT = target: T4, ZGPAT (UniProt Q8N5A5)
T4 sequence: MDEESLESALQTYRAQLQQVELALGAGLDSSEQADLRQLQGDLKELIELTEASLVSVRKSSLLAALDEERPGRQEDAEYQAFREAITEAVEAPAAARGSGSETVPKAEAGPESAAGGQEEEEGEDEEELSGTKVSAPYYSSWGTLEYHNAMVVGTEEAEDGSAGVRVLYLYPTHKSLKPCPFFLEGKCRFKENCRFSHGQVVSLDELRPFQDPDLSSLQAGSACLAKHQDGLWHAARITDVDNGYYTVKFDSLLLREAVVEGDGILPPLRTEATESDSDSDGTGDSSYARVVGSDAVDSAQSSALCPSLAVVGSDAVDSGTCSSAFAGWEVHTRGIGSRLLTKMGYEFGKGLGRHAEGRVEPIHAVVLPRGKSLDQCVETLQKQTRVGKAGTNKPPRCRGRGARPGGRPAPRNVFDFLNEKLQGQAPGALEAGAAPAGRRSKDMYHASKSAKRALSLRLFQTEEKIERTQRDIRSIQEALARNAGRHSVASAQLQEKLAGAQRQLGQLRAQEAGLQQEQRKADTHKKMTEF
How it was run: as §1

PINX1 = target: T5, PINX1 (UniProt Q96BK5)
T5 sequence: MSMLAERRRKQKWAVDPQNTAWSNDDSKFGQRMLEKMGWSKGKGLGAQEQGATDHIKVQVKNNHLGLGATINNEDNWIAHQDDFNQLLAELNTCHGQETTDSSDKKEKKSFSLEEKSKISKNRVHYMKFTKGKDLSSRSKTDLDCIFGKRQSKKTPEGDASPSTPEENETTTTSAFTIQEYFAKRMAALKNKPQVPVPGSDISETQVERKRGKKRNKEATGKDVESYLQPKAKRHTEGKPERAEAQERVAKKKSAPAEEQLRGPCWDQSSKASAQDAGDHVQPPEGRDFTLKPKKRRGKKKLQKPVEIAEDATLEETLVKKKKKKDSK
How it was run: as §1

MRPL50 = MRPL50 (UniProt Q8N5N7)
How it was run: as §1

RPS28 = RPS28 (UniProt P62857)
How it was run: as §1

IGF2BP3 = IGF2BP3 (UniProt O00425)
How it was run: as §1

Chain of P4HA1 (P13674 whole entry): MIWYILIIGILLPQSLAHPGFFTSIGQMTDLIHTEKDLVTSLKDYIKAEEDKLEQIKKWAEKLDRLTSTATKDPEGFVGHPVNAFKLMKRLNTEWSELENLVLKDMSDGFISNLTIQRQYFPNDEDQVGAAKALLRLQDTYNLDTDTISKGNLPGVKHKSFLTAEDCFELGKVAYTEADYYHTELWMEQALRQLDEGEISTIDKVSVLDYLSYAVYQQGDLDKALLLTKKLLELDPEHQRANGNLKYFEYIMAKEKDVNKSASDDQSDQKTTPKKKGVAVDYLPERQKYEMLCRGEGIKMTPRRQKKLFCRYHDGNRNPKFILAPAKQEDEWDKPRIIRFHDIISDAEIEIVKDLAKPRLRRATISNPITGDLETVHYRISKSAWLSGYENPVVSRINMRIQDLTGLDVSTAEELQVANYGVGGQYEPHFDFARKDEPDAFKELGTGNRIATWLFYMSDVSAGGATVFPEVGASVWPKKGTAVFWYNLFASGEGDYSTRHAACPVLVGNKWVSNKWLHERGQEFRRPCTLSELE
Chain of HNRNPA2B1 (P22626 whole entry): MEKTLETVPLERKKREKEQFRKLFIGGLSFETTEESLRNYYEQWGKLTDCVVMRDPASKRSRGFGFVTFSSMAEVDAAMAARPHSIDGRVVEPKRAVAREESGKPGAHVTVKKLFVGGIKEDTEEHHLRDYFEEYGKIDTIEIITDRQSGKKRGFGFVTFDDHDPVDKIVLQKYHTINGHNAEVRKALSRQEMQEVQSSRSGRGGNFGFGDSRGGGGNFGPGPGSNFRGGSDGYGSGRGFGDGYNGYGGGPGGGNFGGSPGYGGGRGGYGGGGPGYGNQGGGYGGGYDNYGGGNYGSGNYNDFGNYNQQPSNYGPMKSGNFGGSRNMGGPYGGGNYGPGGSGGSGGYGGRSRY
Chain of TTC37 (Q6PGP7 whole entry): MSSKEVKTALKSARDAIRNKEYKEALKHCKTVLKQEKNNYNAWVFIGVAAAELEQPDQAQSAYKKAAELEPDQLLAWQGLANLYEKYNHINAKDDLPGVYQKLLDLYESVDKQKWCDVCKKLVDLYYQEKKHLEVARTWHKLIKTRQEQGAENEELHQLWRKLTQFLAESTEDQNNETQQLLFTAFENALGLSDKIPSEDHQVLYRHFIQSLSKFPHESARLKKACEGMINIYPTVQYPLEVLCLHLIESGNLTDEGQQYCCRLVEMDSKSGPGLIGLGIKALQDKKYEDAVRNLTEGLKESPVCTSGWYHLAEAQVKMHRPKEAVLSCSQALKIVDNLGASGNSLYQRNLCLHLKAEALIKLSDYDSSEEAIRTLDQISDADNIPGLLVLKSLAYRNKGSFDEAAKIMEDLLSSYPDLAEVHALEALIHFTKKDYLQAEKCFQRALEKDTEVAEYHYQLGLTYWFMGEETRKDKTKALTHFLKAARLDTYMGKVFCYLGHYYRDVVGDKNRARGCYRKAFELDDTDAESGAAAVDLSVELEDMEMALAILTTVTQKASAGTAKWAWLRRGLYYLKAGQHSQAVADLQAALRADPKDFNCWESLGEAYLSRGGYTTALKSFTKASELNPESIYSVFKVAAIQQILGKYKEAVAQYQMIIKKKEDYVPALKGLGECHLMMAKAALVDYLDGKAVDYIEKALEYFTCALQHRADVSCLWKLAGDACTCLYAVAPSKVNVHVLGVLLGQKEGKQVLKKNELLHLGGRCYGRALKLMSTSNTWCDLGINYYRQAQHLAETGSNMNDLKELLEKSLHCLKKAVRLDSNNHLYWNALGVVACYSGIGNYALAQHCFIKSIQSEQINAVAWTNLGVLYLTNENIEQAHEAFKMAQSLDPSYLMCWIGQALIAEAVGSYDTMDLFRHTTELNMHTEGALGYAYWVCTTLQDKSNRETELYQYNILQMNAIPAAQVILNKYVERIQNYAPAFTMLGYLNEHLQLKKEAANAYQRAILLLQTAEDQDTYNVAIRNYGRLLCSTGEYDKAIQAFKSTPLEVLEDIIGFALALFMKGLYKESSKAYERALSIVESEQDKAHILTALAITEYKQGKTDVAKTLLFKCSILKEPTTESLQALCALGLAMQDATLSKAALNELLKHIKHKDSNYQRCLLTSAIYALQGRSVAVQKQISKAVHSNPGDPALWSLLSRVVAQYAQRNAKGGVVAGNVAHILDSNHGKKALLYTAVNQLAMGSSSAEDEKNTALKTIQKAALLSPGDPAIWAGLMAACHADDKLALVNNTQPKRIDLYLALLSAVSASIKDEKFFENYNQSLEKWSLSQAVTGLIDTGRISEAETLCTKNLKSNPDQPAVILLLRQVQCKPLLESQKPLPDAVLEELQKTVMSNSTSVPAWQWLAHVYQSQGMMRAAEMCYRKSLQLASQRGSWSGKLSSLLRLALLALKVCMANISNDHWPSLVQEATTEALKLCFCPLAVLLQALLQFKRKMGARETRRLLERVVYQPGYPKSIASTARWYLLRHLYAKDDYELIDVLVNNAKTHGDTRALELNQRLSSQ
Chain of TSN (Q15631 whole entry): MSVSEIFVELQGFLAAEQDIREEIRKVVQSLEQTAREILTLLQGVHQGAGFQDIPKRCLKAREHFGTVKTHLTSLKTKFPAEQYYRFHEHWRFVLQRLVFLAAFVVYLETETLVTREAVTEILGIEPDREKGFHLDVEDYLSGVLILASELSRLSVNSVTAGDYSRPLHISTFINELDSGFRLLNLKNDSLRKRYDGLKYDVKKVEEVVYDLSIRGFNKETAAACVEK
Chain of CSNK2A1 (P68400 whole entry, looked up): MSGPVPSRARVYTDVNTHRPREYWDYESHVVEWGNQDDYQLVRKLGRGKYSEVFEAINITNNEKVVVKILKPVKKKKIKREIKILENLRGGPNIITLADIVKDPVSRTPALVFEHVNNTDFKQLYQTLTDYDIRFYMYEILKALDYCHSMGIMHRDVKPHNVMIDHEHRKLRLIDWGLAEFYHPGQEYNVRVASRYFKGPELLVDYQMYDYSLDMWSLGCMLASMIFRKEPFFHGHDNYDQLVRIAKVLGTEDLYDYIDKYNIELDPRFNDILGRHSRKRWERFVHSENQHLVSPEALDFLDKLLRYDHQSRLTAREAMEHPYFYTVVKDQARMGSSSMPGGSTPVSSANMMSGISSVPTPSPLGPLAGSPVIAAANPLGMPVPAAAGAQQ
Chain of PTBP3 (O95758 whole entry): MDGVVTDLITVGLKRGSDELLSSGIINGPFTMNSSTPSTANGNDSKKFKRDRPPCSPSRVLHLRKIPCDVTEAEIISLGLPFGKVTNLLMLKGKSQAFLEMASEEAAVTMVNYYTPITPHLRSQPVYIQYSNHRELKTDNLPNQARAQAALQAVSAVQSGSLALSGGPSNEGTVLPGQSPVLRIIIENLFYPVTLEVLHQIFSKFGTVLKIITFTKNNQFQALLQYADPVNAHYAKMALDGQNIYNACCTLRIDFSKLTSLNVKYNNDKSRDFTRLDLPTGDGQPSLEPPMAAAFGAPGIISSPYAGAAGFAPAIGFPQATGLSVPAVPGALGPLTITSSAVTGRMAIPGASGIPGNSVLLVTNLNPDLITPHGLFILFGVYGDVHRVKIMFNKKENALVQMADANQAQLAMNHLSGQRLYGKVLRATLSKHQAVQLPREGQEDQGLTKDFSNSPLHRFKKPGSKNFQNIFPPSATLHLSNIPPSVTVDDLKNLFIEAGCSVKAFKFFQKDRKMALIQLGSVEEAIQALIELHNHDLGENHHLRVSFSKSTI
Chain of IGF2BP3 (O00425 whole entry): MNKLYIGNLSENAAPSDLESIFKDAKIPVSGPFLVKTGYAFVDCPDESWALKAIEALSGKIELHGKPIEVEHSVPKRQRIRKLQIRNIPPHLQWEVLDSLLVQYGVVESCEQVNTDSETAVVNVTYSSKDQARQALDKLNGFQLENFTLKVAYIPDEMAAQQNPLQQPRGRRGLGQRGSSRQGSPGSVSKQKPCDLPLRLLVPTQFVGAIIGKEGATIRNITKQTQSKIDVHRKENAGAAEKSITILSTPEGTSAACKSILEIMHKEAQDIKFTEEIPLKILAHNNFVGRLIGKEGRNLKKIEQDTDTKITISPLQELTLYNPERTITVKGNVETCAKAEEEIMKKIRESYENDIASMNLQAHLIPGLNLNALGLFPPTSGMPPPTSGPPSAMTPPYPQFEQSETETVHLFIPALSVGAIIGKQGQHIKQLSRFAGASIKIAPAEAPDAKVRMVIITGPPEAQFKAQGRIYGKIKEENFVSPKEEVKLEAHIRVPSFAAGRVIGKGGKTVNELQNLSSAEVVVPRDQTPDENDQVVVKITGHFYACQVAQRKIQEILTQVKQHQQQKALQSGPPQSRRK
Chain of SRSF10 (O75494 whole entry): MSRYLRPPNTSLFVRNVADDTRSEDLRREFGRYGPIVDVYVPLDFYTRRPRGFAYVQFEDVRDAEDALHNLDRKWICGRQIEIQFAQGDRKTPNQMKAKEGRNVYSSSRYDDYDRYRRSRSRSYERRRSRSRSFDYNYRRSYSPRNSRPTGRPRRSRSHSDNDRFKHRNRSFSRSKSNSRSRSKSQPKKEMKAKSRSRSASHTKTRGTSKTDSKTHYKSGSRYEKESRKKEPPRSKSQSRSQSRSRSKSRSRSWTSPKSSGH

Question: How did the Kd (RBM38) turn out when UAUUUAU was run?
Answer: 1270 nM

Question: What about the Kd (CSTF3) of the same sequence?
Answer: 352 nM

Question: And the Kd (TTC37)?
Answer: 577 nM

Question: And the Kd (HNRNPA2B1)?
Answer: 4900 nM

Question: What about the Kd (TSN) of the same sequence?
Answer: 16.8 nM

Question: For AAUAAA, which Kd (SRSF10) is on record?
Answer: 156 nM

Question: And the Kd (P4HA1)?
Answer: 23.8 nM

Question: What about the Kd (SF3B5) of the same sequence?
Answer: 766 nM

Question: And the Kd (PTBP3)?
Answer: 1290 nM

Question: What about the Kd (CSNK2A1) of the same sequence?
Answer: 78.6 nM

Question: What about the Kd (ZGPAT) of the same sequence?
Answer: 4390 nM

Question: And the Kd (PINX1)?
Answer: 360 nM

Question: What does the source list for CUGUCCU?
Answer: Kd (MRPL50): 149 nM; Kd (RPS28): 115 nM; Kd (IGF2BP3): 685 nM

Source: the supplement of paper PMC6379048
